In patent publication US20210254073A1:

What was measured:
[1] = molecular target: human Heat Shock Factor 1 (HSF1) tagged with GFP (Homo sapiens; Aequorea victoria) (UniProt Q00613); experiment: AptA-MS: GFP-aptamer pull-down of HSF1-GFP from HCT116 lysate, mass spectrometry, SAINT probability score of interaction
[2] = molecular target: human Heat Shock Factor 1 (HSF1) tagged with GFP (Homo sapiens; Aequorea victoria) (UniProt Q00613); experiment: AptA-MS of HSF1-GFP from non-heat-shocked HCT116 cells, SAINT probability score of interaction
[3] = molecular target: human Heat Shock Factor 1 (HSF1) tagged with GFP (Homo sapiens; Aequorea victoria) (UniProt Q00613); experiment: AptA-MS of HSF1-GFP from heat-shocked HCT116 cells, SAINT probability score of interaction

UniProt Q00613, sequence (Q00613 whole entry): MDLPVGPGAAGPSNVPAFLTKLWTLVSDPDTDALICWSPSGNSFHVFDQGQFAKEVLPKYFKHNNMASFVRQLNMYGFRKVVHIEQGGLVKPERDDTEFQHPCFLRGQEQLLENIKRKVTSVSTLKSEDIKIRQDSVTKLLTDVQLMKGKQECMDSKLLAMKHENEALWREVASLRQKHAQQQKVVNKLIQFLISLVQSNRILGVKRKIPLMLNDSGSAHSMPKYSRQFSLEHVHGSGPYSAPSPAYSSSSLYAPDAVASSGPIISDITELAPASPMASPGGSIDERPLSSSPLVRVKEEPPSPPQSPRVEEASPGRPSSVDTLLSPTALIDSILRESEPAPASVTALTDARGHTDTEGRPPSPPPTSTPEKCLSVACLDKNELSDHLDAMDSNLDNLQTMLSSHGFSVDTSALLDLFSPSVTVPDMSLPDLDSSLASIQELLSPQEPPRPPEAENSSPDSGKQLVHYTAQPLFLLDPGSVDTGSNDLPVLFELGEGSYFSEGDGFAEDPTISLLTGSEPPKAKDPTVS

| Substance | SAINT score [1] | SAINT score [3] | other results |
| --- | --- | --- | --- |
| Elongation Factor 1-alpha 1 (from UniProt P68104 2-462) | 0.69 |  |  |
| Elongation Factor 1-alpha 2 (from UniProt Q05639 2-463) | 0.66 |  |  |
| HSF2 (from UniProt Q03933 1-536) |  |  | SAINT score [2]: 0.78 |
| Thymidylate Kinase (from UniProt P23919 2-212) (enzyme) |  | 0.98 |  |
| translation elongation factor HBS1 (from UniProt Q9Y450 1-684) |  | 0.92 |  |
